# From PMC2637605
# Test system: Foxi1 (FOXI1)
# Experiment: competition EMSA
# Details: unlabeled wt competitor; 5 mM HEPES pH 7.9, 100 mM KCl, 26% glycerol, 1.5 mM MgCl2, 0.2 mM EDTA, 0.5 mM DTT, 0.5 mM PMSF, 500 ng poly dI:dC, room temperature 15 min; 6% native gel …; scale: fold molar excess for effective competition
substance,measurement,value
ATP6V0A4 Fk1-3 wt (-561/-547),competitor fold molar excess for effective competition,10
